Test results from the supplement of paper PMC10724198.
± gives the standard deviation of the averaged measurements.

System: Saccharomyces cerevisiae
Assay: protein stability index of tFT-peptide fusion (C-terminal peptide) (PSI (0-1 scale)); higher = more stable (slower turnover)
Details: temperature: 30 C
Procedure: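 MPS profiling in S. cerevisiae of the yeast C-terminome library: the last 12 aa of each annotated ORF are fused to the C-terminus of a sfGFP-mCherry timer, after a GGGS linker. Cells are FACS-sorted into 8 mCherry/sfGFP bins and deep-sequenced. PSI runs from 0 (unstable) to 1 (stable); wild type and das1Δ backgrounds, two technical replicates each.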

[1] = genetic background: das1 deletion

## IDLSKKLSFYNY [GMH1 C-terminal 12 aa]
[1]
  protein stability index: 0.685 ± 0.043
Genetic background: wild type
  protein stability index: 0.554 ± 0.0067

## IDNVIISGKDEY [CCT5 C-terminal 12 aa]
[1]
  protein stability index: 0.7033 ± 0.0056
Genetic background: wild type
  protein stability index: 0.6529 ± 0.0048

## IDSLIENLRFQI [DBF4 C-terminal 12 aa]
[1]
  protein stability index: 0.7414 ± 0.0037
Genetic background: wild type
  protein stability index: 0.678 ± 0.049

## IEELLAGIRMSI [BIT61 C-terminal 12 aa]
[1]
  protein stability index: 0.719 ± 0.028
Genetic background: wild type
  protein stability index: 0.706 ± 0.037

## IEHVKYDNIVSP [UBC12 C-terminal 12 aa]
[1]
  protein stability index: 0.6974 ± 0.0012
Genetic background: wild type
  protein stability index: 0.675 ± 0.011

## IFMCIILANKHF [YFR052C-A C-terminal 12 aa]
[1]
  protein stability index: 0.342 ± 0.02
Genetic background: wild type
  protein stability index: 0.22 ± 0.009

## IFQSAISKAIRG [YBR109W-A C-terminal 12 aa]
[1]
  protein stability index: 0.6726 ± 0.0032
Genetic background: wild type
  protein stability index: 0.682 ± 0.0053

## IFRDYFYKSPSP [PIG1 C-terminal 12 aa]
[1]
  protein stability index: 0.739 ± 0.0098
Genetic background: wild type
  protein stability index: 0.763 ± 0.034

## IFSSLVHYCNAG [LST4 C-terminal 12 aa]
[1]
  protein stability index: 0.729 ± 0.013
Genetic background: wild type
  protein stability index: 0.73 ± 0.0085

## IFWLALIYNAIQ [LOH1 C-terminal 12 aa]
[1]
  protein stability index: 0.479 ± 0.016
Genetic background: wild type
  protein stability index: 0.43 ± 0.027

## IGDFFKNLNMAK [NUP159 C-terminal 12 aa]
[1]
  protein stability index: 0.715 ± 0.026
Genetic background: wild type
  protein stability index: 0.743 ± 0.054

## IGGLLKPSELDD [CRM1 C-terminal 12 aa]
[1]
  protein stability index: 0.726 ± 0.032
Genetic background: wild type
  protein stability index: 0.696 ± 0.033

## IGWSVFAEWLCV [CYK3 C-terminal 12 aa]
[1]
  protein stability index: 0.504 ± 0.02
Genetic background: wild type
  protein stability index: 0.5137 ± 0.003

## IHRSVSELSRLH [MBB1 C-terminal 12 aa]
[1]
  protein stability index: 0.705 ± 0.023
Genetic background: wild type
  protein stability index: 0.689 ± 0.025

## IHSTKEEKNCNH [YDR095C C-terminal 12 aa]
[1]
  protein stability index: 0.712 ± 0.017
Genetic background: wild type
  protein stability index: 0.683 ± 0.029

## IIAIVFKILSPN [FAR10 C-terminal 12 aa]
[1]
  protein stability index: 0.32 ± 0.023
Genetic background: wild type
  protein stability index: 0.347 ± 0.031

## IIFVVLLCKKSR [ASG7 C-terminal 12 aa]
[1]
  protein stability index: 0.299 ± 0.019
Genetic background: wild type
  protein stability index: 0.309 ± 0.019

## IIQQNLKKIGII [GPA1 C-terminal 12 aa]
[1]
  protein stability index: 0.696 ± 0.02
Genetic background: wild type
  protein stability index: 0.195 ± 0.011

## IITGSTSTSSSN [MED8 C-terminal 12 aa]
[1]
  protein stability index: 0.671 ± 0.017
Genetic background: wild type
  protein stability index: 0.7067 ± 0.00076

## IKELENSRHEQS [MNN1 C-terminal 12 aa]
[1]
  protein stability index: 0.713 ± 0.049
Genetic background: wild type
  protein stability index: 0.6866 ± 7.9e-05

## IKPSAEVHINAL [VMA10 C-terminal 12 aa]
[1]
  protein stability index: 0.686 ± 0.011
Genetic background: wild type
  protein stability index: 0.743 ± 0.092

## IKPSWENEKNIS [ARG2 C-terminal 12 aa]
[1]
  protein stability index: 0.69 ± 0.02
Genetic background: wild type
  protein stability index: 0.684 ± 0.028

## ILGAYLIDCVCC [YGL069C C-terminal 12 aa]
[1]
  protein stability index: 0.576 ± 0.045
Genetic background: wild type
  protein stability index: 0.644 ± 0.1

## ILGNMEKKKNQD [EPS1 C-terminal 12 aa]
[1]
  protein stability index: 0.733 ± 0.021
Genetic background: wild type
  protein stability index: 0.751 ± 0.013

## ILWLKLEKRIEN [YLR339C C-terminal 12 aa]
[1]
  protein stability index: 0.711 ± 0.025
Genetic background: wild type
  protein stability index: 0.703 ± 0.01

## IMLTLLMFTGAV [PLB3 C-terminal 12 aa]
[1]
  protein stability index: 0.402 ± 0.0044
Genetic background: wild type
  protein stability index: 0.396 ± 0.0091

## INIQQFAALLSK [CMD1 C-terminal 12 aa]
[1]
  protein stability index: 0.66 ± 0.0085
Genetic background: wild type
  protein stability index: 0.68 ± 0.0055

## IPAKKTKISLDY [ELP4 C-terminal 12 aa]
[1]
  protein stability index: 0.6845 ± 0.0032
Genetic background: wild type
  protein stability index: 0.677 ± 0.018

## IPELHNLKPTCV [YBR238C C-terminal 12 aa]
[1]
  protein stability index: 0.67 ± 0.012
Genetic background: wild type
  protein stability index: 0.687 ± 0.016

## IPMTLTTLSTVF [UPA2 C-terminal 12 aa]
[1]
  protein stability index: 0.619 ± 0.0083
Genetic background: wild type
  protein stability index: 0.628 ± 0.012

## IQKLEEARNPQF [UPS1 C-terminal 12 aa]
[1]
  protein stability index: 0.704 ± 0.046
Genetic background: wild type
  protein stability index: 0.718 ± 0.034

## IRRHAYYNQDDD [SLA2 C-terminal 12 aa]
[1]
  protein stability index: 0.677 ± 0.02
Genetic background: wild type
  protein stability index: 0.664 ± 0.0037

## ITERLFNAALDD [YBR232C C-terminal 12 aa]
[1]
  protein stability index: 0.7089 ± 0.0038
Genetic background: wild type
  protein stability index: 0.708 ± 0.018

## ITGLKNNIQKCS [YER068C-A C-terminal 12 aa]
[1]
  protein stability index: 0.688 ± 0.0055
Genetic background: wild type
  protein stability index: 0.253 ± 0.014

## ITHLKAILPKYL [CCA1 C-terminal 12 aa]
[1]
  protein stability index: 0.695 ± 0.0085
Genetic background: wild type
  protein stability index: 0.324 ± 0.0095

## ITSLKSDEYLVQ [RET2 C-terminal 12 aa]
[1]
  protein stability index: 0.73 ± 0.046
Genetic background: wild type
  protein stability index: 0.724 ± 0.085

## IVHKSNFINNKK [OXA1 C-terminal 12 aa]
[1]
  protein stability index: 0.7224 ± 0.0042
Genetic background: wild type
  protein stability index: 0.6943 ± 0.0055

## IVLPMIKDYLFS [HLJ1 C-terminal 12 aa]
[1]
  protein stability index: 0.678 ± 0.018
Genetic background: wild type
  protein stability index: 0.702 ± 0.0079

## IWKEVKRHQDFA [ATG20 C-terminal 12 aa]
[1]
  protein stability index: 0.7235 ± 0.0023
Genetic background: wild type
  protein stability index: 0.734 ± 0.0089

## IWKPAGNLVGHS [MSI1 C-terminal 12 aa]
[1]
  protein stability index: 0.698 ± 0.013
Genetic background: wild type
  protein stability index: 0.7019 ± 0.0026

## IYDWAGEYPLAV [SHM2 C-terminal 12 aa]
[1]
  protein stability index: 0.707 ± 0.026
Genetic background: wild type
  protein stability index: 0.737 ± 0.0049

## IYHKDGNKVLKE [YDR391C C-terminal 12 aa]
[1]
  protein stability index: 0.706 ± 0.053
Genetic background: wild type
  protein stability index: 0.6606 ± 0.0043

## IYKLEYYLLTMQ [YOR199W C-terminal 12 aa]
[1]
  protein stability index: 0.574 ± 0.011
Genetic background: wild type
  protein stability index: 0.526 ± 0.034

## IYRRRKNKIFFW [RCK1 C-terminal 12 aa]
[1]
  protein stability index: 0.705 ± 0.012
Genetic background: wild type
  protein stability index: 0.692 ± 0.045

## KAAINQQSTPLN [RPH1 C-terminal 12 aa]
[1]
  protein stability index: 0.676 ± 0.016
Genetic background: wild type
  protein stability index: 0.728 ± 0.053

## KAKFEGKKIKFD [BUD22 C-terminal 12 aa]
[1]
  protein stability index: 0.678 ± 0.011
Genetic background: wild type
  protein stability index: 0.7092 ± 0.0046

## KALIQRKGGKLE [RPL26A C-terminal 12 aa]
[1]
  protein stability index: 0.6757 ± 0.0023
Genetic background: wild type
  protein stability index: 0.688 ± 0.037

## KDEDEEADEDMK [PRE9 C-terminal 12 aa]
[1]
  protein stability index: 0.711 ± 0.033
Genetic background: wild type
  protein stability index: 0.694 ± 0.014

## KDRCGNVPHQSR [MRN1 C-terminal 12 aa]
[1]
  protein stability index: 0.706 ± 0.0088
Genetic background: wild type
  protein stability index: 0.716 ± 0.08

## KEASRRFDAGKI [SOD2 C-terminal 12 aa]
[1]
  protein stability index: 0.6778 ± 0.0059
Genetic background: wild type
  protein stability index: 0.6795 ± 0.0053

## KEKKDKKKKSKD [NOP56 C-terminal 12 aa]
[1]
  protein stability index: 0.686 ± 0.025
Genetic background: wild type
  protein stability index: 0.661 ± 0.022

## KELEFGLDRKYF [SLT2 C-terminal 12 aa]
[1]
  protein stability index: 0.6989 ± 0.0057
Genetic background: wild type
  protein stability index: 0.68 ± 0.04

## KELVKRRIVGEV [AEP3 C-terminal 12 aa]
[1]
  protein stability index: 0.6815 ± 0.0042
Genetic background: wild type
  protein stability index: 0.72 ± 0.064

## KGARSRFQKSYR [RPS16A C-terminal 12 aa]
[1]
  protein stability index: 0.707 ± 0.011
Genetic background: wild type
  protein stability index: 0.7188 ± 0.0055

## KGTFLANLTDLI [SWF1 C-terminal 12 aa]
[1]
  protein stability index: 0.7347 ± 0.0012
Genetic background: wild type
  protein stability index: 0.665 ± 0.014

## KHGTMQFYWRKT [YOR225W C-terminal 12 aa]
[1]
  protein stability index: 0.692 ± 0.0073
Genetic background: wild type
  protein stability index: 0.386 ± 0.003

## KHGVSAVKRYLR [CBP1 C-terminal 12 aa]
[1]
  protein stability index: 0.6765 ± 0.0054
Genetic background: wild type
  protein stability index: 0.68 ± 0.0089

## KKDKPEGWDRLP [KTR6 C-terminal 12 aa]
[1]
  protein stability index: 0.728 ± 0.046
Genetic background: wild type
  protein stability index: 0.711 ± 0.0073

## KKHSMKSRFKPY [YNL035C C-terminal 12 aa]
[1]
  protein stability index: 0.696 ± 0.029
Genetic background: wild type
  protein stability index: 0.712 ± 0.0099

## KKKEDKGGLQRS [VHS3 C-terminal 12 aa]
[1]
  protein stability index: 0.6842 ± 0.0022
Genetic background: wild type
  protein stability index: 0.697 ± 0.061

## KKKNRSKIKFNY [PTH4 C-terminal 12 aa]
[1]
  protein stability index: 0.724 ± 0.021
Genetic background: wild type
  protein stability index: 0.589 ± 0.011
